Measured values as given in PMC5570508 (2017).

B1: PfEMP1 ATS of variant PFF0845c, fluorescently labeled (H159C) (domain or fragment)
chain: KKKTKSTIDLLRVINIPKGDYGIPTMKSKNRYVPYKSGQYNGKKYIYMEGDESDDYTYIGDISSSDITSSESEYEDIDINNIYPYKSPKYKTLIDVVLEPSKRDTFNTQSDIPSDTSTNKFTDNEWNQLKQDFISNISQNSQMDLPKNNISGNIQMDTCPHVNILDDSMQEKPFITSIHDRDLHNGEEVTYNINLDDHKNMNFSTNHDNIPPKNDQNDLYTGIDLINDSISGNHNVNIYDELLKRKENELFGTNHTKHTTTNIVAKQTHNDPIVNQINLFHKWLDRHRNMCEQWDKNKKEELLDKLNEEWNKENKNNSNVTDTNGENNITRVLNSDVSIQIDMNSKPI
modifications: fluorescein (5-FAM; fluorescein-5-maleimide) on the introduced cysteine C159
B2: spectrin α chain domain 17 (domain or fragment)
chain: AHHEKLKEAYALFQFFQDLDDEESWIEEKLIRVSSQDYGRDLQGVQNLLKKHKRLEGELVAHEPAIQNVLDMAEKLKDKAAVGQEEIQLRLAQFVEHWEKLKELAKARGLKLEESLEYLQFMQNA

Experiments:
α17 Y1713A = assay: FP
α17 Q1717A = assay: FP
α17 D1723K = assay: FP
α17 D1722K = assay: FP
α17 Q1720A = assay: FP
α17 L1709A = assay: FP
α17 F1716A = assay: FP
α17 F1718A = assay: FP
[1] = biological target: PfEMP1 ATS-Core of variant PFF0845c (P. falciparum); assay: NMR; 50 mM NaCl, 25°C

| Binder | Kd (α17 Y1713A) [µM] | Kd (α17 Q1717A) [µM] | Kd (α17 D1723K) [µM] | Kd (α17 D1722K) [µM] | Kd (α17 Q1720A) [µM] | Kd (α17 L1709A) [µM] | Kd (α17 F1716A) [µM] | Kd (α17 F1718A) [µM] | Kd [1] [µM] |
| --- | --- | --- | --- | --- | --- | --- | --- | --- | --- |
| B1 | 63 | 28 | 35 | 60 | 41 | 140 | 300 | 63 | – |
| B2 | – | – | – | – | – | – | – | – | 350 |
